# Assay: soluble on expression in E. coli; label from the status in PepcDB or PDB records
row,Sequence,soluble on expression in E. coli
1,MGSDKIHHHHHHMQILKTSDVPTGIVLLDRRLDGGLPAGSFVCVYANPLAMPEAFLYQFATVLKTYYFTTSRPAKFVKQDMEKLRLDTSFVTFVDVYEQYYLNEYGQFIVEDRYRDKEIFDYVDDRLSRIAEEESGEYNVIIDSLSFFLNLNTDWGLKDWLINKLYTLAKEKGVVVYCHLIKNLHPVDVVNKVLDISDVVFDIEVERVGERLVSKFAVPKLRGKRPVTEYFRFYVEEGIQVDTSRDIA,not soluble
2,NATTLPEALKLMQYIGDAIGTIRDPQELFRTVTDKLRLLFAFDSAVIITIDRERREASVFFEMLRFELPEQLRHQTRSIAGTWLEGHLDDRTVTVASIARDIPSFGADGAPLLWTLHELGMRQIVLSPLRSGGRVIGFLSFVSAEEKLWSDGDKSLLSGVSSSIAIAVSNALAYEELRQREAETSMQLAINNALFTI,soluble
3,MSDNLKIGLQYLTPKHALTRLAGKLASAKMGWLTTAVIKWFIKQYNVNMDEAKNPDPEAYSTFNNFFVRELEDGARPINEDDSVISHPADACVSQFGPIMDGKLVQAKGHVYSAQELLGGDEALAAEFMGGEFATLYLSPSDYHRVHMPCDATLRKMIYVPGDLFSVNPLTAENVPNLFARNERVVCIFDTEFGPMAQILVGATIVGSIETTWAETVTPPTGPAVKTWHYPLSGDDMICFKKGEEMGRFKLGSTVINLFAPNSIKFDDSMENGTPTRMGTPFAHIVKLEHHHHHH,soluble
4,MNRGVIVTGGGHGIGKQICLDFLEAGDKVCFIDIDEKRSADFAKERPNLFYFHGDVADPLTLKKFVEYAMEKLQRIDVLVNNACRGSKGILSSLLYEEFDYILSVGLKAPYELSRLCRDELIKNKGRIINIASTRAFQSEPDSEAYASAKGGIVALTHALAMSLGPDVLVNCIAPGWINVTEQQEFTQEDCAAIPAGKVGTPKDISNMVLFLCQQDFITGETIIVDGGMSKRMIYHGDWNWFYKIDK,soluble
5,MTVFSGVNKIEFEGTFEGIGKDVVMSQMIRALQKHFPSIRDKNYEFSLFLHIFQRYVLENTSITHDLVCDKIRLPIIDEVVELDDIKNYGLLEGKLLSKLAILKLTGKANPIIGKESPLFEVKNGMSSLDVIVRQTQNLNVRYNSDVPLIFMTSLETESQVSNFLEEHYSSSKVRWKTVVQSSFPQIDKDRLLPIDLQINSHENDFWYPCGTGNLTDTLYFSGELDKLIAQGKEILFVSNVDNLGATGDLNILNFIINEKIEYLVEVVERTANVSNTGVLATYKGKLRSVYYNCLSNESASTCRIVNTNNIWIDLKKLKVLIESNSLNLPIHSSESKITHKNEEIECLQFKTQLVDCIAFFPNSRVLKVSRDRFLPLRTCKDLFLLKSTLYDLDSNGTFNLYPLKFGLLPSIDLGDEFATYETFKIGVPDIPNILELEHLTVMGNVFFGRNITLKGTVIIICDENDVITVPDGSILENVTIWHKSQLEDMNGY,not soluble
6,MGHHHHHHSHMDCCASRGCSVPTGPATTICSSDKSCRCGVCLPSTCPHTVWLLEPTCCDNCPPPCHIPQPCVPTCFLLNSCQPTPGLETLNLTTFTQPCCEPCLPRGC,not soluble
7,MGSDKIHHHHHHMNAQTPIRRPISLVLASPRGFCAGVDRAIQIVERAVEKFGAPVYVRHEIVHNRHVVDRLKALGAVFIEELEEAPDDRPVVFSAHGVPKSVPAEAKARQMIYLDATCPLVSKVHVEAQKHYDAGREIVLIGHAGHPEVIGTMGQLPEGAVTLIEDLKDAAAWEPKDAANVAFLTQTTLSVDDTADMVALLRERFPGIAAPHKEDICYATTNRQDAVKHLAEQSELILVVGSKNSSNSVRLKEVGLKAGARDAHLIDDASGIDWTWFDGISRVGLTAGASAPEDLVQGVIDAISARFDTTVEELVEARETITFKLPRLLTA,not soluble
8,MSAEFNQLVAQFEQFQAKLHRVDQQFADLGQMQRELTELEVVATSADREVTVVAGPSGTIKDIRLTDQAMHRPPQALATALMATLRQAVAESARRQAGIVENALGDEMGLTEQVLETQAQLFGVTPQELRAMTEQAPGQPPAAPPPAPPAAGPGPQTPLAPPARPTPPRRPAPAEEADDFSQRGFLRDDDQQPRRPQADPGQKRDDRFLNLYDDEGR,not soluble
9,EVQLQQSGAELARPGASVKMSCKASGYTFTSYTMHWVKQRPGQGLEWIGYINPSSGYSNYNQKFKDKATLTADKSSSTAYMQLSSLTSEDSAVYYCSRPVVRLGYNFDYWGQGSTLTVSSAKTTPPSVYPLAPGSAAQTNSMVTLGCLVKGYFPEPVTVTWNSGSLSSGVHTFPAVLQSDLYTLSSSVTVPSSTWPSETVTCNVAHPASSTKVDKKIVP,soluble
10,MGSDKIHHHHHHMLQTTNKPPLTIRLCQPRGFCAGVDRAIQIVVLALKKYGAPVYVRHEIVHNRYVVEGLQSLGAVFIEELSEIPAEHRRSPVVFSAHGVPKSVPADAQARNLFYLDATCPLVSKVHKQAMRHQRLGRHVLLIGHAGHPEVIGTMGQLPEGAVTLVETEADAARLVPADPKALGFVTQTTLSVEDTAGIIRALRERFPDLQAPAAESICYATTNRQEAVKDTAPGADLYLIVGAPNSSNSRRLVEVAERAGATMSLLVQRAAEIPWNDIGTISTLGLSAGASAPEIIVDEIIDAFRQRFDVTIDLAITATETEDFPVMRVLRDVELTPADMAFVNGAA,not soluble
11,QSALTQPASVSGSPGQSITISCTGTSSDVGGYNYVSWYQQHPGKAPKLMIYGVTNRPSGVSNRFSGSKSGNTASLTISGLQAGDEADYYCSSYTSTRTPYVFGTGTKVEIKRTVAAPSVFIFPPSDEQLKSGTASVVCLLNNFYPREAKVQWKVDNALQSGNSQESVTEQDSKDSTYSLSSTLTLSKADYEKHKVYACEVTHQGLSSPVTKSFNRGEC,soluble
12,MELESKMGAFCGAAQSNYDDACVAFSAANKCAPIERETGVKKLADKLNPEQPHKLSVMDVKLITKASGDYTIVNSLLYSLDMVAVAVDKNGESETFVKRTLDNSIYAGELAQEALKHAGQKRMTGRSKNTIVKKAHTAIGNLVLLINDMEGRTPNASSFLSMGMDLLSSGVTVPGLA,not soluble
13,MGSDKIHHHHHHMPRHDDPRYFPISPLLIVPQALGSFSVFIRKDERLILYAKAGETFTERHSRRLHENGTSEVYVRVDQRQNFGLYLERHLAHILEDDRLPVEHRASAFHCATTELLRDTFGTRLPAPVDGILFERLQSLVTMSLRFLCEQGTLKALGQLLDCDFSAYSHSVNVYALTVPLLARLGYAQTDLVRTGLGVLLHDIGLARLPRAITRHRHSLTKHEEHIYRTHPTLGVGLVAQVPLSQEALHCIMLHHERLDGSGFPAGVKDENIPTAVRALAIADTYDLLTTAPGEARLTPFMALQLMRSEHHSTLDLYLLREFITMLSDAEMAGVWPDTLR,not soluble
14,MKGKITLFFTALCFGLTGCIAPPKGLEKERFSINSYREISPQDLTCHCKTVRLGGKIVNTTVLANQTKIEVLSLPVSSISAKPFVELQSDGRFIVYFNGFVEPENLKERYITVGGQLAGTEKGKIEQADYTYPVVQADKYRIWTLSTTYDYPTDDWDEDDDWGFFRWRHRLWYVQPEIHYYLN,not soluble
15,MIFVLDVGNTNAVLGVFEEGELRQHWRMETDRHKTEDEYGMLVKQLLEHEGLSFEDVKGIIVSSVVPPIMFALERMCEKYFKIKPLVVGPGIKTGLNIKYENPREVGADRIVNAVAGIHLYGSPLIIVDFGTATTYCYINEEKHYMGGVITPGIMISAEALYSRAAKLPRIEITKPSSVVGKNTVSAMQSGILYGYVGQVEGIVKRMKEEAKQEPKVIATGGLAKLISEESNVIDVVDPFLTLKGLYMLYERNANLQHEKGEHHHHHH,soluble
16,MQAWFMDDSNEDQRLPHHRNPKELVSLDYLAELGVLYWKLNPENYENDSELSKIREDRGYDYMDLLDLCPEKVSNYEEKLKNFFTEHIHKDEEIRYCLAGSGYFDVRDKDDRWIRIWMQPGDLIVLPAGIYHRFTLDASNYIKLMRLFVGEPVWTPYNRPQEEHPVRKKYIHGLTYKFGETVKAH,soluble
17,MLVAAILVGCGRDAPPPAAPVALDKTFLADTAAWREARLKELRAPDGWTSLVGLHWLSLKAHYIGSSADSGIKLAVGPPKMGMVSTENNAVWFVPERGAALTLDGKPLTSRIRFQSDRDPQPTLIHFDDGKGVLSLIHRGDRYALRVKHADASSRTHFAGLDYWPLDASWRINARYVPNAVGKTIPIVDIVGISSEQPNAGAIEFERDGKTFRLETIGEPGRAMFVVFADRTSGHGSYPAGRFLDLDVPDASGHVMVDFNRAYNPPCAFTPFATCPLPPPENRIDLAVSAGEKAYKVPHLEHHHHHH,soluble
18,MEILQFIGYGNMAQAILEGAHEILSKRFILEITGRNPEKIAPFLQEKNIQAQIVPYKDAIDIHQKFVFLLFKPYNLKDFNYQGQAKSVLSALAGVGFKALSDAIDSLHYLKCMPNIASKFALSSTAVCEKSPMPLISQKALSVIESFGNCVRVGHEELVDASVATNGSALAFLSLVANSLKDAGIREGLNARGSLELVKMSFKGFAKLLEKERPEMIIEQICTPKGATIEGLSVLEKKGVRGAFIEACHKSVKKMRLLEHHHHHH,not soluble
19,MKFAVIGGTGLIGSQVVKNLNAAGHEAVPHSQSTGIDVISGQGLDQAVAGADVIVNLTNSPTFDEASPAFFQTSMDNLLAAGRKAGVRHFVILSIVGVDQVPELDYYRAKALQEKILAAGPIPYSIVRATQFMEFIDAVLSWTADGDTVRLPATPIQPIAAKDVADAVAEVAAGAPLGGIRNVAGPEIFSLDELGRITLSHKSDGRTVVTDPTAGMFGAVKGDVLTDKDAHLAPTHYADWLS,not soluble
20,MGSDKIHHHHHHMNAVPQWRLAGDWFDICSCDIPCPCEFAQRPTGNHCQGVLAWHVREGQYGDVKLDGLTLVALGEFEGNLWAGEAKAVMGMYLDEKANESQREALQAIFGGHAGGWPAGFAANVGEMRGMEFVPITFEVAGDLATWRVEIPGLVVGRVEALSGPTTPPGKRVQTINPPGSEVGPGQVATWGRSVEVSTKGFGLDWIGTARSSKHIPFDWTGPS,not soluble
21,EPMQVVKQRRDAALNALVSGVPFIRFLNITFDRRGDELTGVLNFDDKLIGNPFLPAIHGGVTAAFLEVTAVITLSWAHLFERIESGDLAPEDILTDENMRFPKTIDFTIDYLRSGLPRDAYARAYISRAGRRYASVRVEAWQDHHDKLYAQGTGHFLMP,not soluble
22,MFIGGAIISFLFLFGYMWKEAHSNRIRHVTLSFPHFPDNGPPLTIFFISDIHRRSVSCRMLETVKGKADLVVIGGDLAEKGVPAARVRENVRRLQTVAPVYFVWGNNDDEVDYDLQSLLEEERVYVLKNKAEVWEHGGVPIALIGVGDVSRKEADIARALEHVPPESFRILACHNPAIIARLEDEQHISLVLSGHTHGGQIRLFSFGLYEKGGLKWHGNTALFTSNGYGTTGVPLRLGAPAETHLIKIVPGKLATEKLEHHHHHH,soluble
23,MSLEVKVGLAPMAGYTDSAFRTLAFEWGADFAFSEMVSAKGFLMNSQKTEELLPQPHERNVAVQIFGSEPNELSEAARILSEKYKWIDLNAGCPVRKVVKEGAGGALLKDLRHFRYIVRELRKSVSGKFSVKTRLGWEKNEVEEIYRILVEEGVDEVFIHTRTVVQSFTGRAEWKALSVLEKRIPTFVSGDIFTPEDAKRALEESGCDGLLVARGAIGRPWIFKQIKDFLRSGKYSEPSREEILRTFERHLELLIKTKGERKAVVEMRKFLAGYTKDLKGARRFREKVMKIEEVQILKEMFYNFIKEVEGGSHHHHHH,soluble

# Source: the DeepSol protein solubility set
